Measured values published in paper PMC6163455, “β-Lactamase Tools for Establishing Cell Internalization and Cytosolic Delivery of Cell Penetrating Peptides” (Biomolecules, 2018).

B1: 1869_SpyT (peptide)
peptide: PPHPRPLPAPAQSRKKQKGRAGRGHEKTGASVLRGPQKPHPLPAQLRGASAHIVMVDAYKPTKG
notes: phylomer CPP 1869, discovered from phylomer peptide libraries; source: synthetic peptide (Pepscan or Mimotopes)
B2: 0169_SpyT (peptide)
peptide: PLTQRTLQRGKKPKQRQNWKKARTSSAKTAPKTVVSRTTSQRKGASAHIVMVDAYKPTKG
notes: phylomer CPP 0169, discovered from phylomer peptide libraries; source: synthetic peptide (Pepscan or Mimotopes)
B3: 1746_SpyT (peptide)
peptide: PLKPKKPKTQEKKKKQPPKPKKPKTQEKKKKQPPKPKRGASAHIVMVDAYKPTKG
notes: source: synthetic peptide (Pepscan or Mimotopes)
B4: TAT_SpyT (peptide)
peptide: GRKKRRQRRRGASAHIVMVDAYKPTKG
notes: canonical CPP TAT; source: synthetic peptide (Pepscan or Mimotopes)
B5: 0084_SpyT (peptide)
peptide: RKQKSLQTKLAENPPVPRKKRQSRPRWKQWLQKGASAHIVMVDAYKPTKG
notes: phylomer CPP 0084, discovered from phylomer peptide libraries; source: synthetic peptide (Pepscan or Mimotopes)
B6: 0167_SpyT (peptide)
peptide: PSSTPATNVARPRLNPIRGHKFALAVPNSRTRGASAHIVMVDAYKPTKG
notes: phylomer CPP 0167, discovered from phylomer peptide libraries; source: synthetic peptide (Pepscan or Mimotopes)
B7: 1788_SpyT (peptide)
peptide: LFVDKATPQIYYTPSESVTVKSKGKNRRKKSGASAHIVMVDAYKPTKG
notes: phylomer CPP 1788, discovered from phylomer peptide libraries; source: synthetic peptide (Pepscan or Mimotopes)
B8: 1746c27_SpyT (peptide)
peptide: KKKKQPPKPKKPKTQEKKKKQPPKPKRGASAHIVMVDAYKPTKG
notes: phylomer CPP 1746c27, discovered from phylomer peptide libraries; source: synthetic peptide (Pepscan or Mimotopes)

Molecular target: T1, SpyCatcher_β-lactamase protein ( | E. coli)
T1 construct: N-terminal leader as printed; TEM-1 β-lactamase of Escherichia coli without its signal peptide; C-terminal tail as printed; Printed mass 42.4 kDa; also called SpyC_β-lactamase; source: E. coli BL21 (DE3) Gold, purified (IMAC, SEC)
Assay: SpyTag/SpyCatcher covalent conjugation (isopeptide bond), analysed by SDS-PAGE; peptide:protein ratio 1.125:1 or 1.25:1, 50 µM SpyC_BLA; 50 mM HEPES, 200 mM NaCl, pH 7.0; 2 h at room temperature and/or overnight at 4 °C; conjugation efficiencies analysed on 4-12% NuPAGE Bis-Tris gels; conjugates then used for uptake into CHO-K1 and T47D cells
Settings: both partners purified

Question: Does B1 bind?
Answer: binds

Question: Does B2 bind?
Answer: binds

Question: Does B3 bind?
Answer: binds

Question: Does B4 bind?
Answer: binds

Question: Does B5 bind?
Answer: binds

Question: Does B6 bind?
Answer: binds

Question: Does B7 bind?
Answer: binds

Question: Does B8 bind?
Answer: binds
